Measured values taken from patent publication US20030059769.

Columns and labels:
[1] = biological target: T1, L-selectin (LS-Rg) (Homo sapiens) (UniProt P14151); test: filter
T1 sequence: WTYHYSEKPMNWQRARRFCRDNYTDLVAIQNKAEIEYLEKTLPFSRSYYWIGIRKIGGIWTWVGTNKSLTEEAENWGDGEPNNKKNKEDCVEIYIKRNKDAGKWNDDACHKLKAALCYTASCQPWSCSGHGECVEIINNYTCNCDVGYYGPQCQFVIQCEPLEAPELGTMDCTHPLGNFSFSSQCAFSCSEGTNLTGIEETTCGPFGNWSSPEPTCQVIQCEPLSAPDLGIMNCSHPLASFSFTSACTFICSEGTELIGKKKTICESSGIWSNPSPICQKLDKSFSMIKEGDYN

[2] = biological target: T2, P-selectin (PS-Rg) (Homo sapiens) (UniProt P16109); test: filter
T2 sequence: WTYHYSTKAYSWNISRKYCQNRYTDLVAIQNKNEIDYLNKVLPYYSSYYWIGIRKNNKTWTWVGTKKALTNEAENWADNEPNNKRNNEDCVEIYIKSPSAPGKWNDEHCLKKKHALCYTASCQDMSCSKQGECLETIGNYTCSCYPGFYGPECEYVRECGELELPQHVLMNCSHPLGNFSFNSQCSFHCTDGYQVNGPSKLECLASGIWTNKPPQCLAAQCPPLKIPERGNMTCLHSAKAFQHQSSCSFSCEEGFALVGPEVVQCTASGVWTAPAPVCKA

CD22beta (CD22b-Rg) = CD22beta (CD22b-Rg) (UniProt P20273); test: filter
[3] = biological target: T3, Wheat germ agglutinin (WGA) (Triticum vulgare) (UniProt P10968); test: filter
T3 sequence: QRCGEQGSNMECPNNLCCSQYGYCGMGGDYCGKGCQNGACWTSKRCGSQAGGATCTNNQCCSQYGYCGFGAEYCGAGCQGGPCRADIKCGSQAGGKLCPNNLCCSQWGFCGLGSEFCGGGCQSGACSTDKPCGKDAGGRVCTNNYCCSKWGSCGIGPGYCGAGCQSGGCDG

[4] = biological target: T4, E-selectin (ES-Rg) (Homo sapiens) (UniProt P16581); test: filter
T4 sequence: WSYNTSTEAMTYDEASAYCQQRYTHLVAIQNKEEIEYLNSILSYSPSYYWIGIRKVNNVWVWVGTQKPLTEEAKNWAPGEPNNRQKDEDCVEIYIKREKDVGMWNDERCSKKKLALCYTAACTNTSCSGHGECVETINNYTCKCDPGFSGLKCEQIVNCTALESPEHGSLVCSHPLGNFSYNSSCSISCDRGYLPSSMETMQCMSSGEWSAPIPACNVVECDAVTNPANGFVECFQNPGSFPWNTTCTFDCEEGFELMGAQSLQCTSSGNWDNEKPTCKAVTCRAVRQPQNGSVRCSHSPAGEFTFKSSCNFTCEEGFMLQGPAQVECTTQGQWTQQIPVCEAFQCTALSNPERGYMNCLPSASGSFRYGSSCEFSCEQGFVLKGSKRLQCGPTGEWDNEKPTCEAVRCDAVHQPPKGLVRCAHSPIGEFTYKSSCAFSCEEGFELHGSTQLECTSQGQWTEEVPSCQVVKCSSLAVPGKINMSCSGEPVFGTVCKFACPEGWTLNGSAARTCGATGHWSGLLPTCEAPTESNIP

[5] = system: Datura stramonium lectin (Datura stramonium); test: filter
[6] = biological target: T5, soluble L-selectin (Homo sapiens) (UniProt P14151); test: filter; settings: 2'-F C and U, 37 C
T5 sequence: T1 sequence

[7] = biological target: T6, L-selectin on PBMC / lymphocytes (Homo sapiens) (UniProt P14151); settings: 2'-NH2 on all C and U; PBMC binding on ice; competed by DREG-56
T6 sequence: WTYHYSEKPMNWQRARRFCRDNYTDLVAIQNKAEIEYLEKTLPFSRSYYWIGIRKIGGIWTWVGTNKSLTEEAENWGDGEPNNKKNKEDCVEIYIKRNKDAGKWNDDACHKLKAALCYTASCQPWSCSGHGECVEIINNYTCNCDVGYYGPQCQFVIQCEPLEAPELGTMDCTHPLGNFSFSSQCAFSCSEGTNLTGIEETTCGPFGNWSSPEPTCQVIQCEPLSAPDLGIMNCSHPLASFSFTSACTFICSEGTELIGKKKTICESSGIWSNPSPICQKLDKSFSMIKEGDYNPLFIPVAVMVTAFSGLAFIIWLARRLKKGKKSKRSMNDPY

[8] = biological target: T1, L-selectin (LS-Rg) (Homo sapiens); test: inhibition; settings: 2'-NH2 C and U; sialyl-LewisX competition ELISA
[9] = 2'-NH2 C and U, <5% bound at 1 uM
[10] = 2'-NH2 C and U, HBSS, room temperature
[11] = 2'-NH2 on all C and U, 4 C, HSMC

Sequence: CTACCTACGATCTGACTAGCCGAGGATCTGATACTTATTGAACATAMCCGCACNCAGGCTTGCTTACTCTCATGTAGTTCC [LD102]
- Kd ([1]; 37 C): 7.9 nM

Sequence: CTACCTACGATCTGACTAGCCGAGGTAGTCGTTATAGGGTRCRCACGACACAAARCRGTRGCTTACTCTCATGTAGTTCC [LD127]
- Kd ([2]; room temperature): 780 nM
- Kd (CD22beta (CD22b-Rg); <1% at 700 nM): > 100 µM
- Kd ([1]; room temp, 890 pM at 37 C): 1 nM
- Kd ([3]; <3% at […]): > 100 µM
- Kd ([4]; room temperature): 1.3 µM

Sequence: GGGAAAAGCGAAUCAUACACAAGAAAGGGAUGGGAUUGGGACGAGCGGCCAAGACUCGGCGGGAACGAAGGGUCCGCUCCGCCAGAGACCAACCGAGAA [WGA ligand 6.8]
- Kd [5, 9]: > 20 µM

Sequence: GGGAAAAGCGAAUCAUACACAAGACAGCGGCGGAGUCAGUGAAAGCGUGGGGGGYGCGGGAGGUCUACCCUGACGCUCCGCCAGAGACCAACCGAGAA [WGA ligand 6.14]
- Kd ([3]; 2'-NH2 on all C and U, <5% bound at 1 uM WGA, estimate): > 20 µM

Sequence: GGGAAAAGCGAAUCAUACACAAGACGGCUGUGUGGUGUUGGAGCGUCAUAGUAGGAGUCGUCACGAACCAAGGCGCUCCGCCAGAGACCAACCGAGAA [WGA ligand 11.24]
- Kd [5, 9]: > 20 µM

Sequence: GGGAAAAGCGAAUCAUACACAAGACUGGCAAGRAGUGCGUGAGGGUACGUUAGGGGUGUUUGGGCCGAUCGCAUGCUCCGCCAGAGACCAACCGAGAA [WGA ligand 11.7]
- Kd ([3]; 2'-NH2 on all C and U, HBSS, room temperature): 0.016 µM

Sequence: GGGAAAAGCGAAUCAUACACAAGAGAGGUGRAUGGGAGAGUGGAGCCCGGGUGACUCGAGGAUUCCCGUGCUCCGCCAGAGACCAACCGAGAA [WGA ligand 11.3]
- Kd [3, 10]: 0.41 µM

Sequence: GGGAAAAGCGAAUCAUACACAAGAGUAGGAGGUUCCAUCACCAGGACUCGGCGGGAACGGAAGGUGAUGSGCUCCGCCAGAGACCAACCGAGAA [WGA ligand 11.35]
- Kd [3, 10]: 0.09 µM

Sequence: GGGAAAAGCGAAUCAUACACAAGANNNNNNNNNNNNNNNNNNNNNNNNNNNNNNNNNNNNNNNNNNNNNNNNNNGCUCCGCCAGAGACCAACCGAGAA [50N9 random 2'-NH2 RNA]
- Kd ([3]; 2'-NH2 on all C and U, undetectable at 36 uM WGA monomer, p130 prints >4 uM): > 4000 µM

Sequence: GGGAAAAGCGAAUCAUACACAAGAUUGGUCGUACUGGACAGAGCCGUGGUAGAGGGAUUGGGACAAAGUGUCAGCUCCGCCAGAGACCAACCGAGAA [WGA ligand 11.20]
- Kd ([5]; 2'-NH2 on all C and U, specificity control): 11.2 µM

Sequence: GGGAGACAAGAAAUAAACNCUCAAGCCCCAAACGCAAGUGAGCAUCCGCAACAGGGAAGAAGACAGAUGAAUGAUUCGACAGGAGGCUCACAACAGGC [PA466]
- Kd ([2]; 2'-NH2 C and U, 37 C): 0.43 nM

Sequence: GGGAGACAAGAAUAAACGCUCAAAAGGUGCCGGGUUGGAGGGGUAGCAAGAAAUGGCUAGGGCGCASGAUUCGACAGGNGGCUCACAACAGGC [PA339]
- Kd ([2]; 2'-NH2 C and U, 37 C): 13.5 nM

Sequence: GGGAGACAAGAAUAAACGCUCAAAUCAACUAAACAACGCAGUCACGAGAACGACCGGKCUGACUCCGAAAGUUCGACAGGAGGCUCACAACAGGC [PA448]
- Kd ([2]; 2'-NH2 on all C and U, 37 C): 5 nM

Sequence: GGGAGACAAGAAUAAACGCUCAACGAGUUCACAUGGGAGCAAUCUCCGAAUAAACAACACGCKAKCGCAAAUUCGACAGGAGGCUCACAACAGGC [PF424]
- Kd ([2]; 2'-F C and U, HSMC, 37 C): 0.0365 nM

Sequence: GGGAGACAAGAAUAAACGCUCAAGUACRCAGUGAGCAGAAGCAGAGAGACUUGGGAUGGGAUGAAAUGGKCUUCGACAGGAGGCUCACAACAGGC [PA467]
- Kd ([2]; 2'-NH2 C and U, 37 C): 24 nM

Sequence: GGGAGACAAGAAUAAACGCUCAANNNGAGGAAGGGCACGCAAGGAAACAAAACACAAAGCAGAAGUAGUAAGAUUCGACAGGAGGCUCACAACAGGC [PA465]
- Kd ([2]; 2'-NH2 C and U, 37 C): > 50 nM

Sequence: GGGAGACAAGAAUAAACNCUCAACGAAAUAGAAGGAACAGAAGAAUGGBGAWGNGGGAAAUGGCAACGAAUUCGACAGGNGGCUCACAACAGGC [PA321]
- Kd ([2]; 2'-NH2 C and U, 37 C): 8 nM

Sequence: GGGAGACAAGAAUAAACNCUCAAGCCCCAAGCAAGUGAGCAUCCGCAACAGGGAAGAAGACAGACGAGUGAUUCGACAGGAGGCUCACAACAGGC [PA473]
- Kd ([2]; 2'-NH2 C and U, 37 C): 0.36 nM

Sequence: GGGAGGACGAUGCGGAAGUGAAGCUAAAGCGGAGGGCCAUUCAGUUUCNCACCACAGACGACUCGCCCGA [F14.2]
- Kd ([2]; 2'-NH2 C and U, HSMC, 4 C): 450 nM
- Kd (CD22beta (CD22b-Rg); 2'-NH2 C and U, <5% bound, 4 C): > 20 µM
- Kd ([1]; 2'-NH2 on all C and U, 4 C, 7.2 nM at room temp): 1.8 nM
- Kd ([4]; 2'-NH2 C and U, HSMC, 4 C): 1.9 µM

Sequence: GGGAGGACGAUGCGGAAGUGAAGCUAAAGSGGAGGGCCACUCAGAAACGCACCACAGACGACUCGCCCGA [F14.13]
- Kd ([1]; 2'-NH2 C and U, 4 C, biphasic (0.74), low affinity 270 nM): 1.3 nM

Sequence: GGGAGGACGAUGCGGACGUGUGUAUCRARUUUUCCGCUGUUUGUGCAGACGACUCGCCCGA [LF1718]
- Kd [6]: 0.0064 µM

Sequence: GGGAGGACGAUGCGGAUAYUCAGCUYGUGUKUUUUCDAUCUUCCCCAGACGACUCGCCCGA [LF1707]
- Kd [6]: 0.00016 µM

Sequence: GGGAGGACGAUGCGGCCGUACAUGGUAARCCUCGAAGGAUUCCCGGGAUGAUCCCCAGACGACUCGCCCGA [F14.27]
- Kd ([1]; 2'-NH2 C and U, HSMC, 4 C): 145 nM

Sequence: GGGAGGACGAUGCGGGAGGAAUGGACWGCGUAUAUCGAGUUGCCUCAGACGACUCGCCCGA [LF1713]
- Kd ([6]; table prints SEQ 338): 0.00022 µM

Sequence: GGGAGGACGAUGCGGNNNNNNNNNNNNNNNNNNNNNNNNNNNNNNNNNNNNNNNNCAGACGACUCGCCCGA [40N7 random 2'-NH2 RNA]
- Kd ([1]; 2'-NH2 on all C and U, random pool, estimate): 10000 nM

Sequence: GGGAGGACGAUGCGGUAACAACAAUCAAGGCGGGUUYACCGCCCCAGUAUGAGUACAGACGACUCGCCCGA [F14.12]
- Kd [2, 11]: 910 nM
- Kd (CD22beta (CD22b-Rg); 2'-NH2 on all C and U, <5% bound at 660 nM protein): > 20 µM
- Kd ([1]; 2'-NH2 on all C and U, 4 C, HSMC (Ca, Mg), Table 9 prints 5.8 pM (4 C), 1.7 nM room temp): 0.06 nM
- Kd [4, 11]: 0.047 µM
- Kd [7]: 0.0013 µM
- IC50 [8]: 0.01 µM

Sequence: GGGAGGACGAUGCGGUCCAGAGCGUGAAGAUCAACGUCCCGGNGUCGAAGACAGACGACUCGCCCGA [F14.70]
- Kd (CD22beta (CD22b-Rg); 2'-NH2 C and U, <5% bound, 4 C): > 20 µM
- Kd ([1]; 2'-NH2 on all C and U, 4 C, biphasic, fraction 0.75, second Kd 254 nM): 2 nM
- Kd ([4]; 2'-NH2 C and U, HSMC, 4 C): 5.9 µM

Sequence: GGGAGGACGAUGCGGUUAGCCUACACUCUAGGUUCAGUUUUCGAAUCUUCCACCGCWGACGACUCGCCCGA [LF1618]
- Kd ([1]; 2'-F on all C and U, 37 C): 9.6 nM
